Data: article PMC11360561

Key:
[1] = target: Human bufavirus 1 (BuV1) VP2, assembled as virus-like particles (human bufavirus 1); assay: cryo-EM structure; purified BuV1 VP2 VLPs dialyzed to pH 4.0 in universal buffer (20 mM HEPES, 20 mM MES, 20 mM sodium acetate, 150 mM NaCl); icosahedral reconstruction
[2] = target: Human bufavirus 1 (BuV1) VP2, assembled as virus-like particles (human bufavirus 1); assay: cryo-EM structure; purified BuV1 VP2 VLPs dialyzed to pH 7.4 in universal buffer (20 mM HEPES, 20 mM MES, 20 mM sodium acetate, 150 mM NaCl); icosahedral reconstruction
[3] = target: Human bufavirus 1 (BuV1) VP2, assembled as virus-like particles (human bufavirus 1); assay: cryo-EM structure; purified BuV1 VP2 VLPs dialyzed to pH 2.6 in 50 mM glycine HCl, 150 mM NaCl; icosahedral reconstruction; full and half (broken) capsids seen in micrographs
[4] = target: Human bufavirus 1 (BuV1) VP2, assembled as virus-like particles (human bufavirus 1); assay: cryo-EM structure; purified BuV1 VP2 VLPs co-incubated with 6SLN (or 3SLN) glycan in 10-fold molar excess of the potential binding sites; icosahedral reconstruction, 60-mer model

Measured: stoichiometry N

Human bufavirus 1 (BuV1) VP2, assembled as virus-like particles (natural protein)
60: all assays above
